Data from US20210130470A1 (MacroGenics, published 2021).

Columns and labels:
[1] = target: T1, human CTLA-4 expressed on the cell surface (human, UniProt P16410 36-223); test: flow cytometry (FACS) on Jurkat cells expressing huCTLA-4 but not PD-1, anti-human Fc secondary antibody, MFI
T1 construct: also called huCTLA-4; CHO cells expressing human CTLA-4
T1 sequence: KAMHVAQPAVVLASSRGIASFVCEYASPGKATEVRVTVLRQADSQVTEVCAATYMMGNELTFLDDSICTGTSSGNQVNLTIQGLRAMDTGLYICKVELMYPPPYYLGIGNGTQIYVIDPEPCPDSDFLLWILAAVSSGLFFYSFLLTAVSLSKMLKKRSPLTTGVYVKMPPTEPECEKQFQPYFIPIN
From the text: Binding of the DART and TRIDENT molecules to human CTLA-4 was detected using anti-human FC secondary Ab (FACS).

[2] = target: T2, hPD-1-His (human, UniProt Q15116 25-170, limits assumed); test: ELISA, hPD-1-His (1 ug/mL) coated, goat anti-human-Fc-HRP detection
T2 construct: also called His-tagged soluble human PD-1; shPD-1
From the text: FIGS. 8A-8D show the results of ELISA studies measuring the binding of serially diluted binding molecules to human CTLA-4 and human PD-1. […] Goat anti-human-Fc-HRP (1:10,000) was employed as the secondary detection molecule to detect binding. FIGS. 8C-8D show the results of a study on the effect of altering orientations and binding domains on binding. […] Goat anti-human-Fcγ-HRP was employed as the secondary detection molecule to detect binding using PICO chemiluminescent substrate.
Goat anti-human-Fc-HRP (1:10,000) was employed as the secondary detection molecule to detect binding.

[3] = target: T2, hPD-1-His; test: BIACORE, binder captured on F(ab)2 goat anti-human Fc, His-tagged soluble human PD-1 passed over at 6.25-100 nM; Langmuir 1:1 fit
[4] = target: T2, hPD-1-His; test: competition ELISA: plate coated with shPD-1 and shCTLA-4 1:1 (2 ug/ml each); blocked ligand biotin-labeled PD-L1 6 ug/ml, streptavidin-HRP, RLU
Procedure: (§1) A series of ELISA assays were conducted to evaluate the ability of bispecific molecules of the invention to block ligand binding to PD-1 and […], alone and in combination. […] Plates were coated with a 1:1 mix of His-tagged soluble human PD-1 (shPD-1) and a His-tagged irrelevant antigen (irrAg) (2 μg/ml each), or a 1:1 mix of shPD-1 and a His-tagged soluble human CTLA-4 (shCTLA-4) (2 μg/ml each).

[5] = target: T3, PD-1 expressed on the cell surface (human, UniProt Q15116 21-288); test: cell-based competition (FACS): blocked ligand PD-L2-PE binding to NSO-PD-1 cells, MFI
T3 construct: also called NSO cells expressing PD-1; NSO-PD-1 cells

[6] = target: T3, PD-1 expressed on the cell surface; test: cell-based competition (FACS): blocked ligand PD-L1-PE binding to NSO-PD-1 cells, MFI
[7] = target: T2, hPD-1-His; test: competition ELISA: plate coated with shPD-1 and irrelevant antigen 1:1 (2 ug/ml each); blocked ligand biotin-labeled PD-L1 6 ug/ml, streptavidin-HRP, RLU
Procedure: as §1

binding result [1]: no binding (tested: about 100 nM)
EC50 [2]: 0.3 nM
Kd [3]: 1.1 nM
IC50 (read off the curve) [4]: ~0.7 nM
IC50 (read off the curve) [5]: ~0.5 nM
IC50 (read off the curve) [6]: ~0.5 nM
IC50 (read off the curve) [7]: ~0.8 nM
B1: PD-1 mAb 6 G4P (antibody, human IgG4 S228P, kappa, V domains shown)
VH: QVQLVQSGAEVKKPGASVKVSCKASGYSFTSYWMNWVRQAPGQGLEWIGVIHPSDSETWLDQKFKDRVTITVDKSTSTAYMELSSLRSEDTAVYYCAREHYGTSPFAYWGQGTLVTVSS
VL: EIVLTQSPATLSLSPGERATLSCRASESVDNYGMSFMNWFQQKPGQPPKLLIHAASNQGSGVPSRFSGSGSGTDFTLTISSLEPEDFAVYFCQQSKEVPYTFGGGTKVEIKR
notes: IgG4 with stabilized hinge, kappa; VH/VL of PD-1 mAb 6-ISQ; also called the PD-1 antibody; parental anti-PD-1 antibody
